Reference: the supplement of paper PMC9112550, “Optimization of the antimicrobial peptide Bac7 by deep mutational scanning” (BMC Biology, 2022)

Tested on: Escherichia coli TOP10
Experiment: shrunken log2 fold change of peptide-encoding DNA abundance (4.5 h post-induction vs induction); higher = less antimicrobial activity (less host growth inhibition)
Details: time post-induction: 4.5 h; library: site-saturation at positions 5, 18, 19, 20
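Also: peptides expressed intracellularly from a pBAD plasmid library in pooled LB shake-flask culture, induced with 0.3% L-arabinose, DNA abundance read by NGS, three biological replicates, DESeq2 with apeglm shrinkage.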

| Sequence | shrunken log2 fold change |
| --- | --- |
| RRIRWRPPRLPRPRPRPMVVPRP | 0.026 |
| RRIRWRPPRLPRPRPRPMWAPRP | 0.385 |
| RRIRWRPPRLPRPRPRPMWCPRP | -0.166 |
| RRIRWRPPRLPRPRPRPNAGPRP | -0.00207 |
| RRIRWRPPRLPRPRPRPNCSPRP | -0.162 |
| RRIRWRPPRLPRPRPRPNDLPRP | 0.0302 |
| RRIRWRPPRLPRPRPRPNDPPRP | -0.137 |
| RRIRWRPPRLPRPRPRPNEMPRP | -0.078 |
| RRIRWRPPRLPRPRPRPNFAPRP | 0.29 |
| RRIRWRPPRLPRPRPRPNFEPRP | 0.00226 |
| RRIRWRPPRLPRPRPRPNFSPRP | -0.305 |
| RRIRWRPPRLPRPRPRPNGIPRP | 0.0301 |
| RRIRWRPPRLPRPRPRPNHRPRP | -0.0538 |
| RRIRWRPPRLPRPRPRPNHSPRP | -0.409 |
| RRIRWRPPRLPRPRPRPNKQPRP | 0.103 |
| RRIRWRPPRLPRPRPRPNLCPRP | 0.114 |
| RRIRWRPPRLPRPRPRPNMDPRP | 0.0467 |
| RRIRWRPPRLPRPRPRPNNDPRP | -0.213 |
| RRIRWRPPRLPRPRPRPNPYPRP | -0.133 |
| RRIRWRPPRLPRPRPRPNRMPRP | 0.126 |
| RRIRWRPPRLPRPRPRPNSRPRP | 0.0524 |
| RRIRWRPPRLPRPRPRPNTLPRP | -0.359 |
| RRIRWRPPRLPRPRPRPNTNPRP | -0.294 |
| RRIRWRPPRLPRPRPRPNTWPRP | 0.245 |
| RRIRWRPPRLPRPRPRPNWEPRP | -0.00663 |

| Sequence | shrunken log2 fold change |
| --- | --- |
| RRIRWRPPRLPRPRPRPNWRPRP | 0.184 |
| RRIRWRPPRLPRPRPRPNYFPRP | -0.167 |
| RRIRWRPPRLPRPRPRPPACPRP | 0.531 |
| RRIRWRPPRLPRPRPRPPDAPRP | 0.5 |
| RRIRWRPPRLPRPRPRPPEIPRP | -0.0659 |
| RRIRWRPPRLPRPRPRPPETPRP | 0.166 |
| RRIRWRPPRLPRPRPRPPEVPRP | 0.334 |
| RRIRWRPPRLPRPRPRPPFAPRP | 0.544 |
| RRIRWRPPRLPRPRPRPPFLPRP | 0.26 |
| RRIRWRPPRLPRPRPRPPFMPRP | 0.0466 |
| RRIRWRPPRLPRPRPRPPHIPRP | 0.696 |
| RRIRWRPPRLPRPRPRPPIAPRP | 2.1 |
| RRIRWRPPRLPRPRPRPPIIPRP | -0.151 |
| RRIRWRPPRLPRPRPRPPKYPRP | -0.163 |
| RRIRWRPPRLPRPRPRPPLFPRP | 0.42 |
| RRIRWRPPRLPRPRPRPPLKPRP | 0.415 |
| RRIRWRPPRLPRPRPRPPMSPRP | 0.095 |
| RRIRWRPPRLPRPRPRPPPDPRP | 0.906 |
| RRIRWRPPRLPRPRPRPPPNPRP | 0.928 |
| RRIRWRPPRLPRPRPRPPPWPRP | 0.616 |
| RRIRWRPPRLPRPRPRPPQGPRP | 0.226 |
| RRIRWRPPRLPRPRPRPPRTPRP | 0.663 |
| RRIRWRPPRLPRPRPRPPRVPRP | 0.626 |
| RRIRWRPPRLPRPRPRPPSGPRP | 0.127 |
| RRIRWRPPRLPRPRPRPPSKPRP | 0.104 |

| Sequence | shrunken log2 fold change |
| --- | --- |
| RRIRWRPPRLPRPRPRPPSNPRP | 0.133 |
| RRIRWRPPRLPRPRPRPPTNPRP | 0.433 |
| RRIRWRPPRLPRPRPRPPVCPRP | 0.15 |
| RRIRWRPPRLPRPRPRPPVWPRP | 0.478 |
| RRIRWRPPRLPRPRPRPPWPPRP | 0.503 |
| RRIRWRPPRLPRPRPRPPYWPRP | 0.204 |
| RRIRWRPPRLPRPRPRPQAKPRP | 0.00651 |
| RRIRWRPPRLPRPRPRPQDLPRP | 0.107 |
| RRIRWRPPRLPRPRPRPQESPRP | 0.00801 |
| RRIRWRPPRLPRPRPRPQETPRP | -0.00116 |
| RRIRWRPPRLPRPRPRPQFDPRP | 0.0373 |
| RRIRWRPPRLPRPRPRPQGAPRP | 0.988 |
| RRIRWRPPRLPRPRPRPQGYPRP | -0.0909 |
| RRIRWRPPRLPRPRPRPQHAPRP | -0.0577 |
| RRIRWRPPRLPRPRPRPQHCPRP | -0.115 |
| RRIRWRPPRLPRPRPRPQHVPRP | -0.274 |
| RRIRWRPPRLPRPRPRPQHYPRP | -0.574 |
| RRIRWRPPRLPRPRPRPQIQPRP | -0.0544 |
| RRIRWRPPRLPRPRPRPQKNPRP | 0.0916 |
| RRIRWRPPRLPRPRPRPQKRPRP | 0.00899 |
| RRIRWRPPRLPRPRPRPQLSPRP | -0.211 |
| RRIRWRPPRLPRPRPRPQMCPRP | 0.349 |
| RRIRWRPPRLPRPRPRPQMPPRP | 0.135 |
| RRIRWRPPRLPRPRPRPQNAPRP | -0.182 |
| RRIRWRPPRLPRPRPRPQNIPRP | -0.882 |

| Sequence | shrunken log2 fold change |
| --- | --- |
| RRIRWRPPRLPRPRPRPQNVPRP | -0.0645 |
| RRIRWRPPRLPRPRPRPQPWPRP | 0.363 |
| RRIRWRPPRLPRPRPRPQRSPRP | 0.172 |
| RRIRWRPPRLPRPRPRPQSEPRP | -0.338 |
| RRIRWRPPRLPRPRPRPQSHPRP | 0.105 |
| RRIRWRPPRLPRPRPRPQTDPRP | 0.236 |
| RRIRWRPPRLPRPRPRPQVPPRP | -0.211 |
| RRIRWRPPRLPRPRPRPQVRPRP | 0.037 |
| RRIRWRPPRLPRPRPRPQVTPRP | -0.0309 |
| RRIRWRPPRLPRPRPRPQWEPRP | -0.0152 |
| RRIRWRPPRLPRPRPRPQWLPRP | 0.275 |
| RRIRWRPPRLPRPRPRPQWMPRP | 0.0674 |
| RRIRWRPPRLPRPRPRPQYEPRP | 0.0857 |
| RRIRWRPPRLPRPRPRPRAVPRP | 0.521 |
| RRIRWRPPRLPRPRPRPRAWPRP | 0.124 |
| RRIRWRPPRLPRPRPRPRCGPRP | 0.672 |
| RRIRWRPPRLPRPRPRPRDHPRP | 0.526 |
| RRIRWRPPRLPRPRPRPRDKPRP | 0.347 |
| RRIRWRPPRLPRPRPRPRDPPRP | 0.241 |
| RRIRWRPPRLPRPRPRPRDYPRP | -0.127 |
| RRIRWRPPRLPRPRPRPREAPRP | 0.185 |
| RRIRWRPPRLPRPRPRPRECPRP | 0.605 |
| RRIRWRPPRLPRPRPRPRELPRP | 0.642 |
| RRIRWRPPRLPRPRPRPREQPRP | 0.349 |
| RRIRWRPPRLPRPRPRPRHLPRP | 0.11 |

| Sequence | shrunken log2 fold change |
| --- | --- |
| RRIRWRPPRLPRPRPRPRKCPRP | 0.4 |
| RRIRWRPPRLPRPRPRPRKYPRP | 0.0119 |
| RRIRWRPPRLPRPRPRPRLDPRP | 0.459 |
| RRIRWRPPRLPRPRPRPRLLPRP | 0.178 |
| RRIRWRPPRLPRPRPRPRMFPRP | 0.182 |
| RRIRWRPPRLPRPRPRPRMRPRP | 1.03 |
| RRIRWRPPRLPRPRPRPRMTPRP | 0.394 |
| RRIRWRPPRLPRPRPRPRNAPRP | 0.0837 |
| RRIRWRPPRLPRPRPRPRNFPRP | 0.0292 |
| RRIRWRPPRLPRPRPRPRPFPRP | 0.56 |
| RRIRWRPPRLPRPRPRPRPSPRP | 0.766 |
| RRIRWRPPRLPRPRPRPRRLPRP | 0.474 |
| RRIRWRPPRLPRPRPRPRTGPRP | 0.235 |
| RRIRWRPPRLPRPRPRPRTHPRP | 0.0534 |
| RRIRWRPPRLPRPRPRPRVPPRP | 0.444 |
| RRIRWRPPRLPRPRPRPRVQPRP | 0.927 |
| RRIRWRPPRLPRPRPRPRWYPRP | -0.0387 |
| RRIRWRPPRLPRPRPRPSACPRP | 0.382 |
| RRIRWRPPRLPRPRPRPSAIPRP | -0.201 |
| RRIRWRPPRLPRPRPRPSAPPRP | 0.499 |
| RRIRWRPPRLPRPRPRPSATPRP | 0.985 |
| RRIRWRPPRLPRPRPRPSCEPRP | 0.19 |
| RRIRWRPPRLPRPRPRPSCLPRP | -0.0337 |
| RRIRWRPPRLPRPRPRPSDGPRP | -0.785 |
| RRIRWRPPRLPRPRPRPSEGPRP | 0.0528 |

| Sequence | shrunken log2 fold change |
| --- | --- |
| RRIRWRPPRLPRPRPRPSEKPRP | -0.153 |
| RRIRWRPPRLPRPRPRPSGDPRP | 0.537 |
| RRIRWRPPRLPRPRPRPSKPPRP | -0.0185 |
| RRIRWRPPRLPRPRPRPSMFPRP | -0.0441 |
| RRIRWRPPRLPRPRPRPSMWPRP | 0.111 |
| RRIRWRPPRLPRPRPRPSNEPRP | 0.0555 |
| RRIRWRPPRLPRPRPRPSPQPRP | 0.266 |
| RRIRWRPPRLPRPRPRPSQMPRP | -0.681 |
| RRIRWRPPRLPRPRPRPSQQPRP | -0.002 |
| RRIRWRPPRLPRPRPRPSRIPRP | -0.338 |
| RRIRWRPPRLPRPRPRPSRSPRP | 0.0592 |
| RRIRWRPPRLPRPRPRPSSMPRP | -0.411 |
| RRIRWRPPRLPRPRPRPSSVPRP | 0.278 |
| RRIRWRPPRLPRPRPRPSWAPRP | 0.152 |
| RRIRWRPPRLPRPRPRPSWYPRP | -0.239 |
| RRIRWRPPRLPRPRPRPTAFPRP | 0.276 |
| RRIRWRPPRLPRPRPRPTCGPRP | 0.73 |
| RRIRWRPPRLPRPRPRPTCNPRP | 0.0836 |
| RRIRWRPPRLPRPRPRPTDFPRP | -0.149 |
| RRIRWRPPRLPRPRPRPTFDPRP | 0.273 |
| RRIRWRPPRLPRPRPRPTFRPRP | -0.0799 |
| RRIRWRPPRLPRPRPRPTGKPRP | 0.294 |
| RRIRWRPPRLPRPRPRPTGRPRP | 0.536 |
| RRIRWRPPRLPRPRPRPTKNPRP | 0.159 |
| RRIRWRPPRLPRPRPRPTNLPRP | -0.0698 |
